Assay results published in US20240190983A1 (JULIUS MAXIMILIANS UNIVERSIT T W RZBURG, published 2024).

T1: Murine TNFR2 (mouse, UniProt P25119 23-474)
T1 construct: Expressed on transiently transfected HEK293 cells; also called mouse TNFR2; TNFR2(mu)
T1 sequence: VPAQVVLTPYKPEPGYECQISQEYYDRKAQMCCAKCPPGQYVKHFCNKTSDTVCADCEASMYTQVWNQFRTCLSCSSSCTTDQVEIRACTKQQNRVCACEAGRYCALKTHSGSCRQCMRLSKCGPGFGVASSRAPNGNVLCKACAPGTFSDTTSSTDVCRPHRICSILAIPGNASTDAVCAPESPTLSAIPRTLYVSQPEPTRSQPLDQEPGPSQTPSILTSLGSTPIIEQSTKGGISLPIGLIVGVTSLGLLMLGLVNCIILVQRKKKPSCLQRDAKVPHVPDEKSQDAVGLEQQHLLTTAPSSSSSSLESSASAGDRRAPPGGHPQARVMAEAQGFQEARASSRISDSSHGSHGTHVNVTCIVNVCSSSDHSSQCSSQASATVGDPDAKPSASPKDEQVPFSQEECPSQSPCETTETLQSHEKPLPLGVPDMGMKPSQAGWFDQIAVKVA

T2: Cynomolgus TNFR2 (Macaca fascicularis (cynomolgus monkey), UniProt P20333 26-461 (human entry))
T2 construct: Expressed on transiently transfected HEK293 cells; also called TNFR2-cyno; monkey TNFR2
T2 chain: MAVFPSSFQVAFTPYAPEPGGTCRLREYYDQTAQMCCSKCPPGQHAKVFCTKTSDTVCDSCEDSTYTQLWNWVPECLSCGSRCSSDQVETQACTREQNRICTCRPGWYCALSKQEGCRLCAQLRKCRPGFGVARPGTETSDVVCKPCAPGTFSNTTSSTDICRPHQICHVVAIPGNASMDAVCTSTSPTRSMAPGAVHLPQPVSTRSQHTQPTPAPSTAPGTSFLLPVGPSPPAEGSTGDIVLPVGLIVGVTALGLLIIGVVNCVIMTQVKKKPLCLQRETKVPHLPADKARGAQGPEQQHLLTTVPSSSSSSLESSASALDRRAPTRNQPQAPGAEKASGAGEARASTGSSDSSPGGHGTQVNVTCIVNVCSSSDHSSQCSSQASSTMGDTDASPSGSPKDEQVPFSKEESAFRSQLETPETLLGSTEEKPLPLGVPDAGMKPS

T3: Human TNFR2 (human, UniProt P20333 23-461)
T3 construct: On cells: HeLa-TNFR2, HT1080-Bcl2-TNFR2, transiently transfected HEK293; endogenous on Kym-1 cells; also called huTNFR2; TNFRSF1B
T3 sequence: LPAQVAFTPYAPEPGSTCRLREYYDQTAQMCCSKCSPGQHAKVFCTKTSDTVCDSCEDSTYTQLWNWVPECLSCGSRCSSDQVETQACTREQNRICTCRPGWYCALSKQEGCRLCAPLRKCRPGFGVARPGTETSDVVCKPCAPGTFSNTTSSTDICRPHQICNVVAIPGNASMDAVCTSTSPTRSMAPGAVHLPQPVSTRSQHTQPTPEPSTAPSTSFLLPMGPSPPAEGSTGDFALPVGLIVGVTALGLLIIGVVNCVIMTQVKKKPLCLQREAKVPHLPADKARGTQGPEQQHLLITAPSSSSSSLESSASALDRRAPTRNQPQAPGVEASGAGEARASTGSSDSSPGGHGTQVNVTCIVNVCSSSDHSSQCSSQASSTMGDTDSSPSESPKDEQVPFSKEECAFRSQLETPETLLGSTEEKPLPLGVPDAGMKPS


What was measured:
[1] = biological target: T1, Murine TNFR2; assay: equilibrium binding of VHH-Fc-GpL to cells expressing mouse TNFR2, 37 C
Experimental: (§1) Specific binding (open circles) was obtained by subtraction of the non-specific binding values (Hek293 cells—crosses) from the binding values for transfectants expressing human TNFR2 (total binding—closed circles). Specific binding was analyzed with the “nonlinear regression to a one-site specific binding curve” function of the GraphPad Prism5 software.
(§2) The equivalent experiment was also performed using TNFR2 from different species, namely from Mus musculus (mouse), Macaca fascicularis (cynomolgus monkey), and Chlorocebus sabaeus (African green monkey) to study the ability of the VHH regions to bind to TNFR2 from different species. The ability to cross react to TNFR2 from different species can be helpful in allowing the antibodies to be studied in various models before assessment in human patients.

[2] = biological target: T2, Cynomolgus TNFR2; assay: equilibrium binding of VHH-Fc-GpL to cells expressing cynomolgus TNFR2, 37 C
Experimental: as §1, §2

[3] = biological target: T4, African green monkey TNFR2 (Chlorocebus sabaeus (African green …)); assay: equilibrium binding of VHH-Fc-GpL to cells expressing African green monkey TNFR2, 37 C; column head Affinity (ng/ml)
T4 construct: whole, on cells
Experimental: as §1, §2

[4] = biological target: T3, Human TNFR2; assay: equilibrium binding of VHH-Fc-GpL to cells expressing human TNFR2, 37 °C; HEK293 cells as unspecific binding; one-site fit of specific binding
[5] = biological target: T3, Human TNFR2; assay: equilibrium binding of 3xVHH-Fc-GpL to HEK293 cells expressing human TNFR2 (panel head Hek-293-TNFR2-human), 37 °C
[6] = biological target: T3, Human TNFR2; assay: binding of 3xVHH-Fc-GpL to HEK293 cells transiently transfected with TNFR2; empty-vector cells as unspecific binding
[7] = biological target: T3, Human TNFR2; assay: equilibrium binding of the GpL fusion protein to HeLa-TNFR2 cells, 37 °C; unspecific binding on HeLa cells subtracted; cell-bound luciferase
Experimental: FIG. 11—Binding properties of TNFR2-specific antibodies. (A) Equilibrium binding of the indicated anti-TNFR2 antibody GpL fusion proteins to cell expressed human TNFR2 at 37° C. (B) HeLa-TNFR2 cells were pretreated with the indicated amounts of anti-TNFR2 antibodies or remained untreated. […] Binding of the various constructs to untransfected HeLa cells was analyzed to obtain unspecific binding values.
Affinity of TNFR2-specific antibodies and antibody variants were also evaluated with HeLa cells and HeLa cells stably expressing human TNFR2. HeLa and HeLa-TNFR2 cells were seeded out in 24-well plates. Next day, the cells were challenged with the indicated concentrations of GpL-labelled TNFR2 antibodies for 1 hour at 37° C. To eliminate the unbound antibodies, the cells were washed 10 times with ice-cold PBS. The cells were then scratched and collected in 50 μl of medium (RPMI, 0.5% FCS) and transferred to black 96-well plates for measurement as mentioned above. The specific binding of different TNFR2-specific antibodies/antibody variants was calculated by subtracting the unspecific binding (values obtained from HeLa cells) from total binding (obtained from HeLa-TNFR2). The resulting values were fitted using the non-linear regression analysis option of GraphPad Prism 5.

[8] = biological target: T2, Cynomolgus TNFR2; assay: equilibrium binding of VHH-Fc-GpL to cells expressing cynomolgus TNFR2, 37 C; column head Affinity (ng/ml)
Experimental: as §1, §2

[9] = biological target: T1, Murine TNFR2; assay: equilibrium binding of 3xVHH-Fc-GpL to HEK293 cells expressing murine TNFR2 (panel head Hek-293-TNFR2-murine), 37 °C
[10] = biological target: T1, Murine TNFR2; assay: equilibrium binding of VHH-Fc-GpL to cells expressing mouse TNFR2, 37 C; column head Affinity (ng/ml)
Experimental: as §1, §2

Row | Binder | binding result [1] | Kd [3] | Kd [4] | Kd [5] | Kd [6] | other results
1 | VHH:C74-Fc-GpL (Fc fusion, also called VHH-Fc-GpL variant of C74; not shown: The Fc domain, the C-terminal GpL reporter and the linkers or tags of the VHH-Fc-GpL construct; No entry gives the joined chain or says which Fc variant was used) VHH: DVQLVESGGGLVQSGGSLRLSCAASGFPFSSSDMTWVRQTSGSVFEWVSDINPDGQNTRYADSVKGRFIISRDNAKSTLYLQMDSLKTDDTAVYYCAADPGSSGGSLSYWGKGTLVTVSS | no binding | 0.06 µg/mL | 0.08 µg/mL |  |  | binding result [2]: no binding
2 | 3×VHH:C74-Fc-GpL (Fc fusion, also called 3×VHH-Fc-GpL variant of C74; hexavalent format for C74; not shown: the listing has no entry for the 3xVHH-Fc-GpL format) VHH: DVQLVESGGGLVQSGGSLRLSCAASGFPFSSSDMTWVRQTSGSVFEWVSDINPDGQNTRYADSVKGRFIISRDNAKSTLYLQMDSLKTDDTAVYYCAADPGSSGGSLSYWGKGTLVTVSS |  |  |  | 0.001 µg/mL | 0.035 µg/mL | 
3 | (68/69)-IgG1(N297A)-LC:GpL (antibody, Gaussia princeps luciferase (GpL) fused to the light chain; copies: 2 + 2) light: EVKLVPRQLDYKDDDDKELDVQMTQSPSSLSASVGDRVTITCKASQDINKFIAWYQQKPGKAPKLLIHYTSTLQPGIPSRFSGSGSGRDYTFTISSLQPEDIATYYCLQYGNLWTFGGGTKVEIKGSEIKRTVAAPSVFIFPPSDEQLKSGTASVVCLLNNFYPREAKVQWKVDNALQSGNSQESVTEQDSKDSTYSLSSTLTLSKADYEKHKVYACEVTHQGLSSPVTKSFNRGECLEKPTENNEDFNIVAVASNFATTDLDADRGKLPGKKLPLEVLKEMEANARKAGCTRGCLICLSHIKCTPKMKKFIPGRCHTYEGDKESAQGGIGEAIVDIPEIPGFKDLEPMEQFIAQVDLCVDCTTGCLKGLANVQCSDLLKKWLPQRCATFASKIQGQVDKIKGAGGD heavy: not shown |  |  |  |  |  | Bmax [7]: 1130 kRLU; Kd [7]: 0.044 µg/mL
4 | VHH:C18-Fc-GpL (Fc fusion, also called VHH-Fc-GpL variant of C18; not shown: The Fc domain, the C-terminal GpL reporter and the linkers or tags of the VHH-Fc-GpL construct; No entry gives the joined chain or says which Fc variant was used) VHH: DVQLVESGGGSVQTGGSLTLSCAISGSTSERYCMGWFRQAPGREREGVAATSLTGRGAQFYADSVKGRFTISLDDAKNTLYLQMDSLRPDDTAVYYCAADVGFLCGYDSDNDPFYDWGQGTQVTVSS |  | 0.06 µg/mL | 0.23 µg/mL |  |  | Kd [8]: 0.05 µg/mL
5 | 3×VHH:C18-Fc-GpL (Fc fusion, also called 3×VHH-Fc-GpL variant of C18; hexavalent format of C18; not shown: the listing has no entry for the 3xVHH-Fc-GpL format) VHH: DVQLVESGGGSVQTGGSLTLSCAISGSTSERYCMGWFRQAPGREREGVAATSLTGRGAQFYADSVKGRFTISLDDAKNTLYLQMDSLRPDDTAVYYCAADVGFLCGYDSDNDPFYDWGQGTQVTVSS |  |  |  | 0.001 µg/mL | 0.006 µg/mL | Kd [9]: 0.18 µg/mL
6 | 3xVHH:C188-Fc-GpL (Fc fusion, not shown: a dimerising Fc or GST; small tags and cut ends, also called hexavalent 3×VHH-Fc-GpL construct of C188) VHH: DVQLVESGGGSVQTGGSLTLSCAISGSTSERYCLGWFRQAPGREREGVAATSLTGRGAQFYADSVKGRFTISLDDAKNTLYLQMDSLRPDDTAVYYCAEDVGFLCGYDSDNDPFYDWGQGTQVTVSS |  |  |  | 0.003 µg/mL | 0.005 µg/mL | Kd [9]: 0.07 µg/mL
7 | VHH:C188-Fc-GpL (Fc fusion, Gaussia princeps, also called VHH-Fc-GpL format protein of C188; not shown: Fc domain; Gaussia princeps luciferase (GpL) reporter domain at the C-terminus of the Fc) DVQLVESGGGSVQTGGSLTLSCAISGSTSERYCLGWFRQAPGREREGVAATSLTGRGAQFYADSVKGRFTISLDDAKNTLYLQMDSLRPDDTAVYYCAEDVGFLCGYDSDNDPFYDWGQGTQVTVSS |  | 0.15 µg/mL | 0.57 µg/mL |  |  | Kd [10]: 0.95 µg/mL; Kd [8]: 0.45 µg/mL
8 | VHH:C12-Fc-GpL (Fc fusion, also called VHH-Fc-GpL format protein of C12; not shown: The Fc domain, the C-terminal GpL reporter and the linkers or tags of the VHH-Fc-GpL construct; No entry gives the joined chain or says which Fc variant was used) VHH: DVQLVESGGGLVQPGGSLRLSCGGSGFTFSSYGMSWVRQAPGKGLEWVSGIYDDGSVTDYADSVKGRFTISRDDAKNTVYLQMNSLKSEDTALYYCATGEDGELNYWGQGTQVTVSS | no binding | 0.08 µg/mL | 0.8 µg/mL |  |  | binding result [2]: no binding
9 | VHH:C36-Fc-GpL (Fc fusion, also called VHH-Fc-GpL format protein of C36; not shown: The Fc domain, the C-terminal GpL reporter and the linkers or tags of the VHH-Fc-GpL construct; No entry gives the joined chain or says which Fc variant was used) VHH: HVQLVESGGGSVQAGGSLRLSCAASGFTFSSYYMSWVRQAPGKGLEWVSAIYSDDSDNYSDSVKGRFTISKDNAKNTLYLQMNSLKPEDTAMYYCAAIRIGTDQYKFWGQGTQVTVSS | no binding | 0.08 µg/mL | 3.2 µg/mL |  |  | 
10 | VHH:C118-Fc-GpL (Fc fusion, also called VHH-Fc-GpL format protein of C118; not shown: The Fc domain, the C-terminal GpL reporter and the linkers or tags of the VHH-Fc-GpL construct; No entry gives the joined chain or says which Fc variant was used) VHH: QVQLVESGGGSVQAGGSLRLSCAASGHTYRSNCMGWFRQAPGKEREGVAAMYTGTDWKYYADSVKGRFTISQDKAKNTLYLVMNNLKPDDTGVYYCAADFGFICGYDSDDDPYDAWGQGTQVTVSS | no binding | 0.1 µg/mL | 0.13 µg/mL |  |  | 
11 | VHH:C178-Fc-GpL (Fc fusion, also called VHH-Fc-GpL format protein of C178; not shown: The Fc domain, the C-terminal GpL reporter and the linkers or tags of the VHH-Fc-GpL construct; No entry gives the joined chain or says which Fc variant was used) VHH: DVQLVESGGGLVHPGGSLRLSCAASGFTFSADDATWARQPPGKGLEWISTLYFDTEEKTYADSVKGRFIISRDIAKNTVYLQMNNLKPEDTGMYVCTATWAGGSLLRPASFGVWGQGTQVTVSS | no binding | 0.06 µg/mL | 0.9 µg/mL |  |  | binding result [2]: no binding
12 | 3xVHH:C238-Fc-GpL (Fc fusion, not shown: a dimerising Fc or GST; small tags and cut ends, also called hexavalent 3×VHH-Fc-GpL construct of C238) VHH: QVQLVESGGGSVQPGGSLTLSCVDSGSAYLSYCMAWFRQAPGKEREGVAAIYYGGDSYYADSVKGRFTISQDHAKNTMYLQMNSLKPEDTAVYYCAADVGFICGYDSDNDPPNDWGQGTQVTVSS |  |  |  | 0.006 µg/mL | 0.008 µg/mL | Kd [9]: 0.1 µg/mL
